Results as given in the RNAGym collection of RNA variant scans (doi:10.1093/molbev/msab373).

B1: Azoarcus group I ribozyme (parent)
chain: GUGCCUUGCGCCGGGAAACCACGCAAGGGAUGGUGUCAAAUUCGGCGAAACCUAAGCGCCCGCCCGGGCGUAUGGCAACGCCGAGCCAAGCUUCGGCGCCUGCGCCGAUGAAGGUGUAGAGACUAGACGGCACCCACCUAAGGCAAACGCUAUGGUGAAGGCAUAGUCCAGGGAGUGGCGAAAGUCACACAAACCGG

Variants of: B1
Experiment: reverse-splicing fitness (ratio to wild type); higher = more active; in vitro selection; Mg2+ level not given
Procedure, shortened: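 An in vitro group I ribozyme library with randomized positions was T7-transcribed and gel-purified. In triplicate, 10 pmol RNA in EPPS pH 7.5 was reacted with 50 pmoles of a 30-nt RNA substrate for 1 h at 37 °C across several added MgCl2 levels (1–48 mM), then stopped with EDTA. Products were reverse transcribed from a substrate-complementary primer, PCR-amplified and sequenced (HiSeq 4000). Fitness is a variant's read proportion after selection over that before, normalised to wild type.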

First: C82G A111C A120U A145U C150A C169U
Second: C82G A111C A120U A145U C150A C169A
The reverse-splicing fitness of the first is higher: 0.00311 for the first, 0.00247 for the second.

First: C82G A111C A120U A145G C150A C169G U176A
Second: C82G A111C A120U A145G C150A C169G U176G
The reverse-splicing fitness of the first is higher: 0.00649 for the first, 0.00277 for the second.

First: C82G A111C A120U A145G C150A C169G U176C
Second: C82G A111C A120U A145U C150A C169U U176G
The reverse-splicing fitness of the first is higher: 0.00534 for the first, 0.00243 for the second.

First: C82G A111C A120U A145U C150A C169U U176A
Second: C82G A111C A120U A145U C150A C169U U176C
The reverse-splicing fitness of the first is lower: 0.00302 for the first, 0.00353 for the second.

Compared with C82G A111C A120U A145U C150U, C82G A111C A120U A145U C150A is lower in reverse-splicing fitness: 0.0307 for the first, 0.00799 for the second.

First: C82G A111C A120U A145U C150G
Second: C82G A111C A120U A145U C150A U176A
The reverse-splicing fitness of the first is higher: 0.00826 for the first, 0.00533 for the second.

Going from C82G A111C A120U A145U C150A U176C to C82G A111C A120U A145U C150A U176G, the reverse-splicing fitness falls from 0.00583 to 0.00269.

Compared with C82G A111C A120U A145G C169A U176C, C82G A111C A120U A145G C169A U176A is higher in reverse-splicing fitness: 0.00311 for the first, 0.00424 for the second.

Compared with C82G A111C A120U A145G C169A U176G, C82G A111C A120U A145U C150G C169G U176G is higher in reverse-splicing fitness: 0.00218 for the first, 0.00242 for the second.

Compared with C82G A111C A120U A145U C150G C169G U176A, C82G A111C A120U A145U C150G C169G U176C is higher in reverse-splicing fitness: 0.00287 for the first, 0.00317 for the second.

Compared with C82G A111C A120U C150A C169G U176A, C82G A111C A120U C150A C169G U176C is higher in reverse-splicing fitness: 0.00466 for the first, 0.00487 for the second.

Compared with C82G A111C A120U C150A C169G U176G, C82G A111C A120U C150A C169A U176A is higher in reverse-splicing fitness: 0.0024 for the first, 0.00668 for the second.

Compared with C82G A111C A120U C150A C169A U176G, C82G A111C A120U C150A C169A U176C is higher in reverse-splicing fitness: 0.00289 for the first, 0.00453 for the second.

First: C82G A111C A120U A145U C150G U176A
Second: C82G A111C A120U A145U C150G U176C
The reverse-splicing fitness of the first is lower: 0.00411 for the first, 0.0062 for the second.

Going from C82G A111C A120U A145U C150G U176G to C82G A111C A120U A145G C169U U176A, the reverse-splicing fitness rises from 0.00265 to 0.00525.

First: C82G A111C A120U A145G C169U U176C
Second: C82G A111C A120U A145G C169U U176G
The reverse-splicing fitness of the first is higher: 0.00468 for the first, 0.0022 for the second.

Compared with C82G A111C A120U A145U C150A C169G U176G, C82G A111C A120U A145U C150A C169G U176A is higher in reverse-splicing fitness: 0.00223 for the first, 0.00297 for the second.

Going from C82G A111C A120U A145U C150A C169G U176C to C82G A111C A120U A145G C150U C169G U176G, the reverse-splicing fitness rises from 0.00248 to 0.00259.

First: C82G A111C A120U A145G C150U C169G U176C
Second: C82G A111C A120U A145G C150U C169G U176A
The reverse-splicing fitness of the first is lower: 0.00437 for the first, 0.00573 for the second.

First: C82G A111C A120U C150A C169U U176G
Second: C82G A111C A120U C150A C169U U176C
The reverse-splicing fitness of the first is lower: 0.00298 for the first, 0.00469 for the second.

Compared with C82G A111C A120U C150A C169U U176A, C82G A111C A120U A145U C150U C169A U176C is lower in reverse-splicing fitness: 0.00691 for the first, 0.00293 for the second.

Compared with C82G A111C A120U A145U C150U C169A U176A, C82G A111C A120U A145U C150U C169A U176G is lower in reverse-splicing fitness: 0.00282 for the first, 0.00223 for the second.

First: C82G A111C A120U C150A C169G
Second: C82G A111C A120U C150A C169U
The reverse-splicing fitness of the first is lower: 0.0046 for the first, 0.00505 for the second.

Compared with C82G A111C A120U C150A C169A, C82G A111C A120U A145U C150U C169A is lower in reverse-splicing fitness: 0.00547 for the first, 0.00298 for the second.

Compared with C82G A111C A120U A145U C150U C169U, C82G A111C A120U A145U C150U C169G is higher in reverse-splicing fitness: 0.00397 for the first, 0.00403 for the second.

Compared with C82G A111C A120U A145G C150U U176C, C82G A111C A120U A145G C150U U176G is lower in reverse-splicing fitness: 0.0162 for the first, 0.00399 for the second.

First: C82G A111C A120U A145G C150U U176A
Second: C82G A111C A120U A145G U176A
The reverse-splicing fitness of the first is higher: 0.0115 for the first, 0.0112 for the second.

Going from C82G A111C A120U A145G U176G to C82G A111C A120U A145G U176C, the reverse-splicing fitness rises from 0.004 to 0.0203.

First: C82G A111C A120U C150G C169U U176G
Second: C82G A111C A120U C150G C169U U176A
The reverse-splicing fitness of the first is lower: 0.00294 for the first, 0.00494 for the second.

Compared with C82G A111C A120U C150G C169U U176C, C82G A111C A120U A145C U176C is higher in reverse-splicing fitness: 0.00676 for the first, 0.013 for the second.

Compared with C82G A111C A120U A145C U176G, C82G A111C A120U A145C U176A is higher in reverse-splicing fitness: 0.00462 for the first, 0.0111 for the second.

First: C82G A111C A120U A145U C169U
Second: C82G A111C A120U A145U C169G
The reverse-splicing fitness of the first is higher: 0.00412 for the first, 0.00373 for the second.

Going from C82G A111C A120U A145U C169A to C82G A111C A120U A145U C150U C169U U176A, the reverse-splicing fitness rises from 0.00231 to 0.0031.

Compared with C82G A111C A120U A145U C150U C169U U176C, C82G A111C A120U A145U C150U C169U U176G is lower in reverse-splicing fitness: 0.00311 for the first, 0.00235 for the second.

Going from C82G A111C A120U C150G C169A U176C to C82G A111C A120U C150G C169A U176A, the reverse-splicing fitness rises from 0.0071 to 0.00878.

Compared with C82G A111C A120U C150G C169A U176G, C82G A111C A120U A145G C150G C169G U176G is higher in reverse-splicing fitness: 0.00331 for the first, 0.00427 for the second.

First: C82G A111C A120U A145G C150G C169G U176A
Second: C82G A111C A120U A145G C150G C169G U176C
The reverse-splicing fitness of the first is higher: 0.00983 for the first, 0.00829 for the second.

Compared with C82G A111C A120U A145U C150G C169U U176C, C82G A111C A120U A145U C150G C169U U176G is lower in reverse-splicing fitness: 0.00292 for the first, 0.00234 for the second.

First: C82G A111C A120U A145U C150G C169U U176A
Second: C82G A111C A120U A145G C150U C169U U176A
The reverse-splicing fitness of the first is lower: 0.00309 for the first, 0.00549 for the second.

First: C82G A111C A120U A145G C150U C169U U176G
Second: C82G A111C A120U A145G C150U C169U U176C
The reverse-splicing fitness of the first is lower: 0.00262 for the first, 0.00492 for the second.

Going from C82G A111C A120U C150U C169A to C82G A111C A120U C150G U176C, the reverse-splicing fitness rises from 0.00635 to 0.00675.

Going from C82G A111C A120U C150G U176A to C82G A111C A120U C150G U176G, the reverse-splicing fitness falls from 0.00422 to 0.00279.
